We go through two proteins from publication PMC8044227, “Cardiolipin enhances the enzymatic activity of cytochrome bd and cytochrome bo3 solubilized in dodecyl-maltoside” (Scientific Reports, 2021).

In general, Km refers to the substrate concentration at which the rate is half of its maximum.

Substrate in the data set: COc1c(O)c(C)c(CC=C(C)C)c(O)c1OC
The data set can be described thus: O2 consumption, Clark-type electrode. The class given is biochemical, Escherichia coli. The conditions noted are these: no cardiolipin, 0.025% DDM, 50 mM MOPS, 100 mM NaCl, pH 7.5, 37 °C, 10 mM DTT.

B1: cytochrome bo3 (E. coli) (Escherichia coli K-12) (protein)
chain: MFGKLSLDAVPFHEPIVMVTIAGIILGGLALVGLITYFGKWTYLWKEWLTSVDHKRLGIMYIIVAIVMLLRGFADAIMMRSQQALASAGEAGFLPPHHYDQIFTAHGVIMIFFVAMPFVIGLMNLVVPLQIGARDVAFPFLNNLSFWFTVVGVILVNVSLGVGEFAQTGWLAYPPLSGIEYSPGVGVDYWIWSLQLSGIGTTLTGINFFVTILKMRAPGMTMFKMPVFTWASLCANVLIIASFPILTVTVALLTLDRYLGTHFFTNDMGGNMMMYINLIWAWGHPEVYILILPVFGVFSEIAATFSRKRLFGYTSLVWATVCITVLSFIVWLHHFFTMGAGANVNAFFGITTMIIAIPTGVKIFNWLFTMYQGRIVFHSAMLWTIGFIVTFSVGGMTGVLLAVPGADFVLHNSLFLIAHFHNVIIGGVVFGCFAGMTYWWPKAFGFKLNETWGKRAFWFWIIGFFVAFMPLYALGFMGMTRRLSQQIDPQFHTMLMIAASGAVLIALGILCLVIQMYVSIRDRDQNRDLTGDPWGGRTLEWATSSPPPFYNFAVVPHVHERDAFWEMKEKGEAYKKPDHYEEIHMPKNSGAGIVIAAFSTIFGFAMIWHIWWLAIVGFAGMIITWIVKSFDEDVDYYVPVAEIEKLENQHFDEITKAGLKNGN
notes: His-tagged complex overexpressed in E. coli GO105/pJRhisA, Ni-Sepharose-purified in DDM
Take B1: the Km turned out to be 56 ± 13 µM.

B2: cytochrome bd (E. coli) (Escherichia coli K-12) (protein)
chain: MLDIVELSRLQFALTAMYHFLFVPLTLGMAFLLAIMETVYVLSGKQIYKDMTKFWGKLFGINFALGVATGLTMEFQFGTNWSYYSHYVGDIFGAPLAIEGLMAFFLESTFVGLFFFGWDRLGKVQHMCVTWLVALGSNLSALWILVANGWMQNPIASDFNFETMRMEMVSFSELVLNPVAQVKFVHTVASGYVTGAMFILGISAWYMLKGRDFAFAKRSFAIAASFGMAAVLSVIVLGDESGYEMGDVQKTKLAAIEAEWETQPAPAAFTLFGIPDQEEETNKFAIQIPYALGIIATRSVDTPVIGLKELMVQHEERIRNGMKAYSLLEQLRSGSTDQAVRDQFNSMKKDLGYGLLLKRYTPNVADATEAQIQQATKDSIPRVAPLYFAFRIMVACGFLLLAIIALSFWSVIRNRIGEKKWLLRAALYGIPLPWIAVEAGWFVAEYGRQPWAIGEVLPTAVANSSLTAGDLIFSMVLICGLYTLFLVAELFLMFKFARLGPSSLKTGRYHFEQSSTTTQPAR
notes: CydABX complex, Strep-tag, expressed in E. coli MB43, streptactin-purified in DDM
As to B2, the Km worked out at 95 ± 16 µM.
